Biological target: the molecule itself
Assay: near-TIRF microscopy

B1: Saccharomyces cerevisiae septin complex (Cdc3, Cdc10, Cdc11, Cdc12), polymerizable hetero-oligomer (complex)
chain 1: MSLKEEQVSIKQDPEQEERQHDQFNDVQIKQESQDHDGVDSQYTNGTQNDDSERFEAAESDVKVEPGLGMGITSSQSEKGQVLPDQPEIKFIRRQINGYVGFANLPKQWHRRSIKNGFSFNLLCVGPDGIGKTTLMKTLFNNDDIEANLVKDYEEELANDQEEEEGQGEGHENQSQEQRHKVKIKSYESVIEENGVKLNLNVIDTEGFGDFLNNDQKSWDPIIKEIDSRFDQYLDAENKINRHSINDKRIHACLYFIEPTGHYLKPLDLKFMQSVYEKCNLIPVIAKSDILTDEEILSFKKTIMNQLIQSNIELFKPPIYSNDDAENSHLSERLFSSLPYAVIGSNDIVENYSGNQVRGRSYPWGVIEVDNDNHSDFNLLKNLLIKQFMEELKERTSKILYENYRSSKLAKLGIKQDNSVFKEFDPISKQQEEKTLHEAKLAKLEIEMKTVFQQKVSEKEKKLQKSETELFARHKEMKEKLTKQLKALEDKKKQLELSINSASPNVNHSPVPTKKKGFLR
chain 2: MDPLSSVQPASYVGFDTITNQIEHRLLKKGFQFNIMVVGQSGLGKSTLINTLFASHLIDSATGDDISALPVTKTTEMKISTHTLVEDRVRLNINVIDTPGFGDFIDNSKAWEPIVKYIKEQHSQYLRKELTAQRERFITDTRVHAILYFLQPNGKELSRLDVEALKRLTEIANVIPVIGKSDTLTLDERTEFRELIQNEFEKYNFKIYPYDSEELTDEELELNRSVRSIIPFAVVGSENEIEINGETFRGRKTRWSAINVEDINQCDFVYLREFLIRTHLQDLIETTSYIHYEGFRARQLIALKENANSRSSAHMSSNAIQR
chain 3: MSGIIDASSALRKRKHLKRGITFTVMIVGQSGSGRSTFINTLCGQQVVDTSTTILLPTDTSTEIDLQLREETVELEDDEGVKIQLNIIDTPGFGDSLDNSPSFEIISDYIRHQYDEILLEESRVRRNPRFKDGRVHCCLYLINPTGHGLKEIDVEFIRQLGSLVNIIPVISKSDSLTRDELKLNKKLIMEDIDRWNLPIYNFPFDEDEISDEDYETNMYLRTLLPFAIIGSNEVYEMGGDVGTIRGRKYPWGILDVEDSSISDFVILRNALLISHLHDLKNYTHEILYERYRTEALSGESVAAESIRPNLTKLNGSSSSSTTTRRNTNPFKQSNNINNDVLNPASDMHGQSTGENNETYMTREEQIRLEEERLKAFEERVQQELLLKRQELLQREKELREIEARLEKEAKIKQEE
chain 4: MSAATATAAPVPPPVGISNLPNQRYKIVNEEGGTFTVMLCGESGLGKTTFINTLFQTVLKRADGQQHRQEPIRKTVEIDITRALLEEKHFELRVNVIDTPGFGDNVNNNKAWQPLVDFIDDQHDSYMRQEQQPYRTKKFDLRVHAVLYFIRPTGHGLKPIDIETMKRLSTRANLIPVIAKADTLTAQELQQFKSRIRQVIEAQEIRIFTPPLDADSKEDAKSGSNPDSAAVEHARQLIEAMPFAIVGSEKKFDNGQGTQVVARKYPWGLVEIENDSHCDFRKLRALLLRTYLLDLISTTQEMHYETYRRLRLEGHENTGEGNEDFTLPAIAPARKLSHNPRYKEEENALKKYFTDQVKAEEQRFRQWEQNIVNERIRLNGDLEEIQGKVKKLEEQVKSLQVKKSHLK
- binding result: binds
